The results in this text go back to publication PMC10276851, “Tozorakimab (MEDI3506): an anti-IL-33 antibody that inhibits IL-33 signalling via ST2 and RAGE/EGFR to reduce inflammation and epithelial dysfunction” (Scientific Reports, 2023).

B3: soluble serum stimulated 2 (sST2), the truncated, soluble form of ST2 (receptor, UniProt Q01638-2 19-328, looked up)
chain: KFSKQSWGLENEALIVRCPRQGKPSYTVDWYYSQTNKSIPTQERNRVFASGQLLKFLPAAVADSGIYTCIVRSPTFNRTGYANVTIYKKQSDCNVPDYLMYSTVSGSEKNSKIYCPTIDLYNWTAPLEWFKNCQALQGSRYRAHKSFLVIDNVMTEDAGDYTCKFIHNENGANYSVTATRSFTVKDEQGFSLFPVIGAPAQNEIKEVEIGKNANLTCSACFGKGTQFLAAVLWQLNGTKITDFGEPRIQQEEGQNQSFSNGLACLDMVLRIADVKEEDLLLQYDCLALNLHGLRRHTVRLSRKNPSKECF
B4: reduced interleukin-33 (IL-33^red), recombinant human, residues 112–270 (ligand, UniProt O95760 112-270, looked up)
chain: SITGISPITEYLASLSTYNDQSITFALEDESYEIYVEDLKKDEKKDKVLLSYYESQHPSNESGDGVDGKMLMVTLSPTKDFWLHANNKEHSVELHKCEKPLPDQAFFVLHNMHSNCVSFECKTDPGVFIGVKDNHLALIKVDSSENLCTENILFKLSET
notes: interleukin-33, human, residues 112–270, reduced form (free cysteines); Other assays used a biotinylated Avi-tag histidine-tag form or an N-terminally tagged form; also called wild-type IL-33; source: recombinant

Test [1] has as its target T1, IL-33ox (Homo sapiens, UniProt O95760).
T1 chain: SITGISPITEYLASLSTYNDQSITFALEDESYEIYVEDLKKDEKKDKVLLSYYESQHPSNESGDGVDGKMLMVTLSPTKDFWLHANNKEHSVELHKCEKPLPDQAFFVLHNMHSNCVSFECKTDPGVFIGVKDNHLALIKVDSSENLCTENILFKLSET
The experiment in a line: SPR. In general terms: SPR reads the build-up and loss of mass on a sensor chip optically.

In test [2] the target is T2, IL-33red (Homo sapiens, UniProt O95760).
T2 chain: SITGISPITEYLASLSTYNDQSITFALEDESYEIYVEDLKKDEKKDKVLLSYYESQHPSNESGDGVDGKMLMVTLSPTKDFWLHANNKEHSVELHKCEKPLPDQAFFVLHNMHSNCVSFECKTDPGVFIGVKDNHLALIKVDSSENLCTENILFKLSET
Briefly: KinExA. On the technique in general: In KinExA the mixture passes briefly over coated beads that capture the unbound partner.

For test [3], the target named is T3, endogenous IL-33^red derived from human lung tissue (mixture of full-length and N-terminally truncated forms) (human (endogenous in lung tissue), UniProt O95760 1-270).
T3 sequence (looked up): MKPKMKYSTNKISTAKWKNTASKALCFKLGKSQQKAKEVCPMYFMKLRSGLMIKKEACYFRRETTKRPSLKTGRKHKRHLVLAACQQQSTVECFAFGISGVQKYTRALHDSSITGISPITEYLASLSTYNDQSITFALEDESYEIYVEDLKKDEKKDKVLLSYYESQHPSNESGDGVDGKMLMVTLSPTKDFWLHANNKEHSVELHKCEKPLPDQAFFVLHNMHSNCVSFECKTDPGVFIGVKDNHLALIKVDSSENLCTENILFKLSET
The experiment in a line: cell-based or functional assay.

The target in test [4] is B4. Briefly: cell-based or functional assay.
In test [5] the target is B3. The experiment in a line: KinExA (kinetic exclusion assay); equilibrium in free solution; IL-33^red against fixed sST2 (30 pM and 2.0 pM datasets), 1:1 binding model fitted to both datasets simultaneously. The conditions noted are these: both partners purified.
Test [6] has as its target B3. Briefly: KinExA (kinetic exclusion assay); measurement of the association rate constant (ka) of IL-33 interacting with sST2 in free solution. The conditions noted are these: both partners purified.

B1: tozorakimab Fab (antibody, V domains shown)
VH: EVQLLESGGGLVQPGGSLRLSCAASGFTFSSYAMSWVRQAPGKGLEWVSGISAIDQSTYYADSVKGRFTISRDNSKNTLYLQMNSLRAEDTAVYYCARQKFMQLWGGGLRYPFGYWGQGTMVTVSS
VL: SYVLTQPPSVSVSPGQTASITCSGEGMGDKYAAWYQQKPGQSPVLVIYRDTKRPSGIPERFSGSNSGNTATLTISGTQAMDEADYYCGVIQDNTGVFGGGTKLTVLG
modifications: oxidized IL-33
As a reminder, the Kd is the free concentration of one partner at which half of the binding sites on the other are occupied at equilibrium, for simple one-to-one binding. Low readings indicate higher affinity, high ones lower affinity. Turning to B1, in test [1], binding was put at a Kd of 41 nM.

B2: tozorakimab (antibody, V domains shown)
VH: EVQLLESGGGLVQPGGSLRLSCAASGFTFSSYAMSWVRQAPGKGLEWVSGISAIDQSTYYADSVKGRFTISRDNSKNTLYLQMNSLRAEDTAVYYCARQKFMQLWGGGLRYPFGYWGQGTMVTVSS
VL: SYVLTQPPSVSVSPGQTASITCSGEGMGDKYAAWYQQKPGQSPVLVIYRDTKRPSGIPERFSGSNSGNTATLTISGTQAMDEADYYCGVIQDNTGVFGGGTKLTVLG
Regarding B2, the Kd in test [2] was determined as 0.03 pM.

B3: in test [3], the “IC50 of inhibition of IL-8 release from HUVECs treated with human lung lysate (endogenous IL-33^red)” value is 32 pM. In addition, the “IC50 of inhibition of IL-8 release from HUVECs driven by recombinant human IL-33^red (residues 112–270)” value in test [4] came to 424 pM. Broadly, the kon is a measure of how fast the partners come together. For B4, the affinity in test [5], expressed as Kd, was 0.09 pM. Also, in test [6], the kon was 1.5e+08 M⁻¹ s⁻¹.
